Source: patent publication US20250154261A1 (published 2025)
Numbering of substitutions follows the chain as printed.

B1: ADI-11826 Fab (Fab, V domains shown)
VH: EVQLVESGGGLVQPGGSLRLSCAASGFTFPGYWMSWVRQAPGKGLEWVANINQDGSEVYYVDSVKGRFTISRDNAKNSLYLQMNSLRAEDTAVYYCAREANYYGNVGDDYWGQGTLVTVSS
VL: DIQMTQSPSSLSASVGDRVTITCRASQSIYNYLNWYQQKPGKAPKLLIYAASSTQSGVPSRFSGSGSGTDFTLTISSLQPEDFATYYCQQAFHVPITFGGGTKVEIK
notes: Fab fragment; also called Ab26
B2: ADI-11828 Fab (Fab, V domains shown)
VH: EVQLVESGGGLVQPGGSLRLSCAASGFTFSSYWMSWVRQAPGKGLEWVANINQDGSEVYYVDSVKGRFTISRDNAKNSLYLQMNSLRAEDTAVYYCARDVGPGIAYQGHFDYWGQGTLVTVSS
VL: B1 VL with N31Y, T54R, A91V, F92Y, H93D, V94T, I96L
notes: Fab fragment; also called Ab27
B3: ADI-10160 Fab (Fab, V domains shown)
VH: B1 VH with P30S, G31S, V58K
VL: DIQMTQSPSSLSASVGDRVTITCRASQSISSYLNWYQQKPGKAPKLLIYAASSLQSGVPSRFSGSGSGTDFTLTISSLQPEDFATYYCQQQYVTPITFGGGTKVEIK
notes: Fab fragment; also called Ab15
B4: ADI-11825 Fab (Fab, V domains shown)
VH: B1 VH with P30G, V58E
VL: B1 VL with S53N, T54L, Q55H
notes: Fab fragment; also called Ab25
B5: ADI-11802 Fab (Fab, V domains shown)
VH: QVQLVQSGAEVKKPGASVKVSCKASGYTFSGYYMHWVRQAPGQGLEWMGMINPYGGSTRYAQKFQGRVTMTRDTSTSTVYMELSSLRSEDTAVYYCAREAADGFVGERYFDLWGRGTLVTVSS
VL: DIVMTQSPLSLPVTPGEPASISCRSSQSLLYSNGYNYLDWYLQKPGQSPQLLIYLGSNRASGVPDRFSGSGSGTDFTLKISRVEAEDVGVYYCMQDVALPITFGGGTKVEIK
notes: Fab fragment; also called Ab23
B6: ADI-10157 Fab (Fab, V domains shown)
VH: QVQLQESGPGLVKPSETLSLTCTVSGGSISSYYWSWIRQPPGKGLEWIGSIYYSGSTNYNPSLKSRVTISVDTSKNQFSLKLSSVTAADTAVYYCARVGGVYSTIETYGMDVWGQGTTVTVSS
VL: EIVMTQSPATLSVSPGERATLSCRASQSVSSNLAWYQQKPGQAPRLLIYGASTRATGIPARFSGSGSGTEFTLTISSLQSEDFAVYYCQQYTVYPPTFGGGTKVEIK
notes: Fab fragment; also called Ab13
B7: ADI-10161 Fab (Fab, V domains shown)
VH: EVQLVESGGGLVQPGGSLRLSCAASGFTFSSYWMSWVRQAPGKGLEWVANINQDGSEKYYVDSVKGRFTISRDNAKNSLYLQMNSLRAEDTAVYYCAREGGDSWYHAFDIWGQGTMVTVSS
VL: DIQMTQSPSSVSASVGDRVTITCRASQGISSWLAWYQQKPGKAPKLLIYAASNLQSGVPSRFSGSGSGTDFTLTISSLQPEDFATYYCQQKLSLPLTFGGGTKVEIK
notes: Fab fragment; also called Ab16
B8: ADI-11839 Fab (Fab, V domains shown)
VH: QVQLVQSGAEVKKPGASVKVSCKASGYTFSNYYMHWVRQAPGQGLEWMGWINPFSGGTRYAQKFQGRVTMTRDTSTSTVYMELSSLRSEDTAVYYCARDVGSSAYYYMDVWGKGTTVTVSS
VL: B7 VL with R24E, Q27K, N53D, K91A, L92F, S93L, L94F, L96P
notes: Fab fragment; also called Ab28
B9: ADI-11812 Fab (Fab, V domains shown)
VH: QVQLVQSGAEVKKPGASVKVSCKASGYTFEIYYMHWVRQAPGQGLEWMGIINPSSGSTVYAQKFQGRVTMTRDTSTSTVYMELSSLRSEDTAVYYCARGAGYDDEDMDVWGKGTTVTVSS
VL: B7 VL with S30D, N53S, K91A, L92H, L94Y
notes: Fab fragment; also called Ab24
B10: ADI-10164 Fab (Fab, V domains shown)
VH: QVQLQESGPGLVKPSETLSLTCAVSGYSISSGYYWGWIRQPPGKGLEWIGSIYHSGSTNYNPSLKSRVTISVDTSKNQFSLKLSSVTAADTAVYYCARLPPWFGFSYFDLWGRGTLVTVSS
VL: EIVLTQSPATLSLSPGERATLSCRASQSVSSYLAWYQQKPGQAPRLLIYDASNRATGIPARFSGSGSGTDFTLTISSLEPEDFAVYYCQQVDNYPPTFGGGTKVEIK
notes: Fab fragment; also called Ab18
B11: ADI-11776 Fab (Fab, V domains shown)
VH: EVQLLESGGGLVQPGGSLRLSCAASGFTFSKYTMSWVRQAPGKGLEWVSAIVGSGESTYFADSVKGRFTISRDNSKNTLYLQMNSLRAEDTAVYYCAREGGPYYDSSGYFVYYGMDVWGQGTTVTVSS
VL: DIQMTQSPSTLSASVGDRVTITCRASQSISSWLAWYQQKPGKAPKLLIYKASSLESGVPSRFSGSGSGTEFTLTISSLQPDDFATYYCQQYDDLPTFGGGTKVEIK
notes: Fab fragment; also called Ab3; H76
B12: ADI-11815 Fab (Fab, V domains shown)
VH: B9 VH with E30G, I31T, S55R
VL: B7 VL with S30D, N53S, K91A, L92H, L94Y
notes: Fab fragment; also called Ab7
B13: ADI-10159 IgG (antibody, V domains shown)
VH: EVQLVESGGGLVQPGGSLRLSCAASGFTFSSYGMSWVRQAPGKGLEWVANIKQDGSEKYYVDSVKGRFTISRDNAKNSLYLQMNSLRAEDTAVYYCAREGGPYYDSSGYFVYYGMDVWGQGTTVTVSS
VL: B11 VL with K50D, D92E, D93S, L94F
notes: IgG; also called Ab1; G59
B14: ADI-11830 Fab (Fab, V domains shown)
VH: B2 VH with Q53T
VL: B1 VL with S28V, N31S, T54L, Q55K, A91V, F92Y, H93D, V94T, I96L
notes: Fab fragment; also called Ab9
B15: ADI-11819 Fab (Fab, V domains shown)
VH: EVQLVESGGGLVKPGGSLRLSCAASGFTFSSYAMSWVRQAPGKGLEWVSSISSSSEGIYYADSVKGRFTISRDNAKNSLYLQMNSLRAEDTAVYYCAREGGPYYDSSGYFVYYGMDVWGQGTTVTVSS
VL: B11 VL with Q27N, K50E, L54T, E55K
notes: Fab fragment; also called Ab8
B16: ADI-10159 Fab (Fab, V domains shown)
VH: B13 VH
VL: B11 VL with K50D, D92E, D93S, L94F
notes: Fab fragment; also called Ab1; G59
B17: ADI-11835 Fab (Fab, V domains shown)
VH: QLQLQESGPGLVKPSETLSLTCTVSGGSISSTDYYWGWIRQPPGKGLEWIGSIGYSGTYYNPSLKSRVTISVDTSKNQFSLKLSSVTAADTAVYYCARETAHDVHGMDVWGQGTTVTVSS
VL: EIVLTQSPATLSLSPGERATLSCRASHSVYSYLAWYQQKPGQAPRLLIYDASNRATGIPARFSGSGSGTDFTLTISSLEPEDFAVYYCQQYDNLPTFGGGTKVEIK
notes: Fab fragment; also called Ab10; 135 (so in the source)
B18: ADI-11807 Fab (Fab, V domains shown)
VH: EVQLVESGGGLVQPGGSLRLSCAASGFTFGSYWMSWVRQAPGKGLEWVATIKQDGSEKSYVDSVKGRFTISRDNAKNSLYLQMNSLRAEDTAVYYCARPLNAGELDVWGQGTMVTVSS
VL: DIQMTQSPSTLSASVGDRVTITCRASQSISSWLAWYQQKPGKAPKLLIYEASSLESGVPSRFSGSGSGTEFTLTISSLQPDDFATYYCQQSQSYPPITFGGGTKVEIK
notes: Fab fragment; also called Ab5; I07
B19: ADI-11809 Fab (Fab, V domains shown)
VH: B18 VH with G30P, Q53R, S59G
VL: B18 VL
notes: Fab fragment; also called Ab6

Biological target: Human CD33 S128N (human, UniProt P20138 18-259)
Assay: SPR captured Fab

Kd | koff | kon | Binder
2.65 nM | 0.00574 s⁻¹ | 2.17e+06 M⁻¹ s⁻¹ | B1
5.41 nM | 0.00742 s⁻¹ | 1.37e+06 M⁻¹ s⁻¹ | B2
85.7 nM | 0.0673 s⁻¹ | 786000 M⁻¹ s⁻¹ | B3
3.09 nM | 0.00649 s⁻¹ | 2.1e+06 M⁻¹ s⁻¹ | B4
0.809 nM | 0.00059 s⁻¹ | 662000 M⁻¹ s⁻¹ | B5
163 nM | 0.00924 s⁻¹ | 56500 M⁻¹ s⁻¹ | B6
63.6 nM | 0.0385 s⁻¹ | 605000 M⁻¹ s⁻¹ | B7
29.5 nM | 0.0284 s⁻¹ | 963000 M⁻¹ s⁻¹ | B8
2.01 nM | 0.00112 s⁻¹ | 556000 M⁻¹ s⁻¹ | B9
279 nM | 0.0539 s⁻¹ | 193000 M⁻¹ s⁻¹ | B10

Biological target: T1, V domain of human CD33 (human, UniProt P20138 18-139, limits assumed)
T1 construct: Whole entry named; also called Human CD33 V domain
Assay: SPR captured Fab

koff | Binder
0.00225 s⁻¹ | B1
0.0143 s⁻¹ | B11

Biological target: T2, Human CD33 R69G (human, UniProt P20138 18-259)
Assay: SPR captured Fab

Kd | koff | kon | Binder
4.34 nM | 0.0013 s⁻¹ | 300000 M⁻¹ s⁻¹ | B12

Biological target: T3, human CD33 (antigen of the BLI measurement, Table 11) (human, UniProt P20138 18-259, limits assumed)
T3 construct: 100 nM antigen in solution; construct not described; whole entry named
Assay: BLI, IgG on AHC

Kd | koff | Binder
0.58 nM | 0.0002 s⁻¹ | B13

Biological target: T1, V domain of human CD33
Assay: SPR captured Fab
Remark: another data set of the same source

koff | Binder
0.00225 s⁻¹ | B1
0.0143 s⁻¹ | B11

Biological target: T2, Human CD33 R69G
Assay: SPR captured Fab
Remark: another data set of the same source

Kd | koff | kon | Binder
3.83 nM | 0.00723 s⁻¹ | 1.89e+06 M⁻¹ s⁻¹ | B1
6.03 nM | 0.007 s⁻¹ | 1.16e+06 M⁻¹ s⁻¹ | B2
63.7 nM | 0.0533 s⁻¹ | 836000 M⁻¹ s⁻¹ | B3
3.74 nM | 0.00695 s⁻¹ | 1.86e+06 M⁻¹ s⁻¹ | B4
2.94 nM | 0.00663 s⁻¹ | 2.27e+06 M⁻¹ s⁻¹ | B14
0.09 nM | 0.000244 s⁻¹ | 2.78e+06 M⁻¹ s⁻¹ | B15
0.22 nM | 0.000426 s⁻¹ | 1.98e+06 M⁻¹ s⁻¹ | B11
5.68 nM | 0.00243 s⁻¹ | 426000 M⁻¹ s⁻¹ | B16
0.67 nM | 0.00205 s⁻¹ | 3.07e+06 M⁻¹ s⁻¹ | B17
17.8 nM | 0.0287 s⁻¹ | 1.56e+06 M⁻¹ s⁻¹ | B6
4.34 nM | 0.0013 s⁻¹ | 300000 M⁻¹ s⁻¹ | B12
48.9 nM | 0.0307 s⁻¹ | 629000 M⁻¹ s⁻¹ | B7
6.74 nM | 0.00228 s⁻¹ | 338000 M⁻¹ s⁻¹ | B9
0.43 nM | 0.000259 s⁻¹ | 597000 M⁻¹ s⁻¹ | B18
0.22 nM | 0.000179 s⁻¹ | 815000 M⁻¹ s⁻¹ | B19
113 nM | 0.035 s⁻¹ | 308000 M⁻¹ s⁻¹ | B10
